Our source for the Km values is patent publication US20250357519A1, “APPLICATIONS OF O2-INSENSITIVE FORMATE DEHYDROGENASE” (UNIVERSITY OF MARYLAND, BALTIMORE, priority 2022, published 2025).

Substrate in this data set: O=CO
The data set is described as follows: purified protein, by the assay type.

B1: Desulfovibrio vulgaris Hildenborough (DvH) FDH2, recombinant Strep-tag II-tagged (FDH2^Rec), large subunit DVU2482 SEQ ID NO: 31, small subunit DVU2481 SEQ ID … (protein)
chain: AELKIAKAKVTPSVCCFCAVGCGLLVYTDTQTGRSINIEGDPDHPTNEGTLCPKGASIWQTTERSKRVTKVLYRAPGAAAWEEKSWDWALPRIARKIKETRDATFELTNDKGQTVNRTRGIASVGSAAVDNEEGWLMQAMMRALGLVYIESHARIUHSSTVGALAESYGRGAMTNHWIDLKNSDVILIMGSNAAENHPISFKWVTRAQERGATLIHVDPRFTRTSAKADIHAHIRSGTDIAFFGGLIRYIMENDLFFRQYVVDYTNASYIVGADYGFADGLFTGFDAEKGTYNTKKWAFAADENGMTLKDPTLNDPRCVFQLMKAHYARYDRKTVSDVTGISEEQLATLWSTFASTGKPDRAGTILYAMGQCQHTVGVQNIRALSMIQLLLGNIGIAGGGVNALRGESNVQGTTDISLLCDNLSGYLPTPKASWATFDDYVKGTTPVDKDPKSANWWSNRGKYLASYMKSVYPTASHQDGYLWHPKVDDGKITDYSWLQIFERMSKGGFKGAFVWGQNPCAGGANAGKNRKAMETLDWMVVVNLFENESSLFWKGPGVDPAKVKTEVFFLPACMSVEKGGSIANSGRWLQWREPGPKPMGDSRSDGDIVLDLYDEIRKLYREEKGAFPEPVLALDTDYRTDGKYDHHKVAKTLNGKFLTDVTIGDKTYKAGQQVPGFAMLQADGSTTSGCWIFTGCYTDAGNMMARRDRTQTPEQAAIGLFPNWSYAWPANRRILYNRAAVDMTGKPFDPKRAVIAWNGEKWVGDVPDGGWKPGEKLPFIMIREGRGQLFGPGRVDGPFPEHYEPFESPLESHPFSKQRVNPTALAFSHEPKAVRDKRYPFICTTYRVTEQWQSGTMTRNTGWLKEMQPEGFCEISRELAKELGIANGDAVVLESLRGKVQVVAIVTPRLKPFKVMGEVMHEVGIPWQFGWGQHVGKGDSANLLSPSVGDPNTGIPETKVFMVNLRKA
For the protein B1, the Km reads like this: (other: 2 mM BV (anaerobic), full progress curve, calculated from kcat and kcat/Km, pH 8.0, 25.0 °C) 2.1 ± 0.1 µM; (other: BV (2 mM), anaerobic, initial velocities, 3 replicates, pH 8.0, 25 °C) 3.5 ± 0.9 µM; (other: BV (20 mM), anaerobic, initial velocities, 3 replicates, pH 8.0, 25 °C) 7 ± 3 µM; (other: DCPIP (air), full progress curve, calculated from kcat and kcat/Km, pH 8.0) 4.5 ± 0.4 µM; (other: DCPIP (anaerobic), full progress curve, calculated from kcat and kcat/Km, pH 8.0) 3.7 ± 0.3 µM; (other: PES/DCPIP, air, initial velocities, 10 replicates, pH 8.0) 7 ± 1 µM. Further, where the note is “other: PES/DCPIP, anaerobic, initial velocities, 5 replicates, pH 8.0”, the Michaelis constant (Km) was found to be 5.5 ± 0.5 µM.

The term Km denotes the concentration of substrate that gives half-maximal velocity.
